We go through 1 molecule from publication PMC7139925, “Tuning the Polymorphism of the Anti-VEGF G-rich V7t1 Aptamer by Covalent Dimeric Constructs”.

In this data set the target is VEGF165 (UniProt P15692-4 27-191). The data set is described as follows: EMSA; annealed; HEPES/Na+; 1:1.3; almost fully bound; 25 mM HEPES, 150 mM NaCl, pH 7.4; 30 pmol oligo + 40 pmol protein in 9 uL, 30 min at 4 C; 7% native PAGE in TAE 1X pH 7.8 at r.t. As to conditions: protein: recombinant; chain copies: 2; G4; 2 copies of strand covalently linked 3'-3'.
VEGF165, sequence (P15692 other isoform, or with tags, fused parts or gaps): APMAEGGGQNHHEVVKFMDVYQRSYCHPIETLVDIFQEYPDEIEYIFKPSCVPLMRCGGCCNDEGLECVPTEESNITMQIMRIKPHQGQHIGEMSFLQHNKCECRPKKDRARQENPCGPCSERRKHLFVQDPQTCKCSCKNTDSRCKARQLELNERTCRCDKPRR

B1: bisV7t1TEG2D (structured_DNA)
DNA: TGTGGGGGTGGACGGGCCGGGTAGA
modifications: two V7t1 copies joined 3' to 3' by TEG/symmetric doubler linker (C25H53N2O24P5), inverted polarity
On to B1, for which the binding result is “binds”.
